Results from the supplement of paper PMC10567573.
± gives the standard deviation.

Assay: protein stability index of a GFP-peptide fusion (GPS, HEK-293T) (PSI 1-6); higher = more stable
[1] = treatment: DMSO, c terminus: a fixed tail appended
[2] = treatment: MLN4924 1 uM, 8 h, c terminus: a fixed tail appended
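Further: 24-mer peptide tiles fused after GFP, lentivirally expressed, FACS-sorted into six equal bins by GFP/DsRed ratio, decoded by Illumina sequencing, PSI is the read-weighted mean bin number.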

Sequence | protein stability index [1] | protein stability index [2] | protein stability index (treatment: DMSO, c terminus: native) | protein stability index (treatment: MLN4924 1 uM, 8 h, c terminus: native)
SDNMSHLMVDFAQERQMLQALKFL [FSD1] | 2.55 ± 0.3 | 2.49 ± 0.23 | – | –
MPNVMTGTMGMAPLGNTPMMNQSM [CLINT1] | 3.68 ± 0.23 | 3.48 ± 0.27 | – | –
EKERRKKQQWEIMHKHNETSQKIA [RSPH3] | 4.44 ± 0.42 | 4.91 ± 0.26 | – | –
RQSYDISIVAQVDQTGSKSSNLLD [CARM1] | 3.93 ± 0.092 | 4.07 ± 0.17 | – | –
SAAVPAGQTYVDAGYEVDKIAQNL [CHIT1] | 4.39 ± 0.3 | 4.61 ± 0.46 | – | –
AQKTALLQDGRRKVHYLFPDGKEM [DPCD] | 3.29 ± 0.22 | 3.62 ± 0.23 | – | –
QNVDVNVHPTKHEVHFLHEESILE [MLH1] | 4.72 ± 0.19 | 4.75 ± 0.056 | – | –
VLEMFDLRMMVENIMNKEAFMNQE [RHOBTB1] | 2.47 ± 0.45 | 2.33 ± 0.26 | – | –
ICNNKWFTDTSIILFLNKKDLFEE [GNAI1] | 3.06 ± 0.97 | 2.83 ± 0.45 | – | –
RVQAALVWERPARSALWCLGLNAA [RETREG3] | 2.1 ± 0.71 | 2.38 ± 0.14 | – | –
RGEALGLVGAQAPATEEQEAASSS [MAGEA3] | 5.61 ± 0.27 | 5.62 ± 0.1 | – | –
NLEGNELQRHADEFLLDLGHHERS [FUT8] | 4.84 ± 0.062 | 4.83 ± 0.31 | – | –
GPILQKDYVQLENQWETPPEDLQT [ZNF449] | 4.94 ± 0.11 | 5 ± 0.28 | – | –
LDSEKPKKLRFHPKQLYFSARQGE [EHMT1] | 3.2 ± 0.038 | 3.4 ± 0.21 | – | –
ESTRELGELLGEARYYLVQGLIED [KCTD13] | 2.88 ± 0.19 | 2.91 ± 0.31 | – | –
ALPIATAFTEYVHAYFRGHSPSCL [FCHO1] | 2.73 ± 0.55 | 2.78 ± 0.57 | – | –
EKLCSISLSHINAYACLVCGKYFQ [USP39] | 2.67 ± 0.56 | 2.61 ± 0.58 | – | –
DFGLAIEVQGDQQAWFGFAGTPGY [CAMK2B] | 2.26 ± 0.35 | 2.15 ± 0.3 | – | –
NSDRMTHCGVLEFVADEGICYLPH [UFD1] | 2.87 ± 0.17 | 2.68 ± 0.36 | – | –
PMNRRNILVMKHNYSQDAADACDI [NETO1] | 3.59 ± 0.11 | 3.8 ± 0.27 | – | –
EDTKPKPTKRKRKGSSAVGSDSD [INTS3] | – | – | 5.45 ± 0.25 | 5.4 ± 0.33
QLVNSSADNMLEYKSWLKNLAKEQ [PPEF2] | 3.24 ± 0.17 | 3.77 ± 0.5 | – | –

Sequence | protein stability index [1] | protein stability index [2] | protein stability index (treatment: DMSO, c terminus: native) | protein stability index (treatment: MLN4924 1 uM, 8 h, c terminus: native)
KVPFSQEIKDLILPKISDPNFVKD [PI4K2A] | 3.56 ± 0.24 | 3.56 ± 0.28 | – | –
LVFLELAQFHCAYQLADWCLHHIC [RHOBTB2] | 3.16 ± 0.17 | 2.98 ± 0.43 | – | –
SSTSPLMEGTPTIKSKKKLLQIID [VPS39] | 3.76 ± 0.23 | 3.79 ± 0.23 | – | –
RAEPYPTSRFGSQCMQPNNIMGIE [NR2F2] | 2.84 ± 0.15 | 2.81 ± 0.18 | – | –
LAVSRPRSSPDDLKALTRNVNRLN [SCARA5] | 3.82 ± 0.22 | 3.84 ± 0.22 | – | –
HRWPSNMYLKQLAEYRKYIHSRKC [RHOBTB3] | 2.75 ± 0.37 | 3.19 ± 0.27 | – | –
ERAKREMVMYSITVAFWLLNSWLW [MFF] | 2.48 ± 0.48 | 1.87 ± 0.39 | – | –
RGFAFVTFESPADAKDAARDMNGK [RBMX] | 4.12 ± 0.16 | 4.19 ± 0.26 | – | –
AAQNGDESSTRLLLEKNASVNEVD [RIPK4] | 5.37 ± 0.24 | 5.48 ± 0.27 | – | –
WYWHGDVNSNKVVMSGVKCSGTEL [LOXL2] | 2.68 ± 0.53 | 2.75 ± 0.28 | – | –
TEVPFSITTDNLQCRERREHPNLV [TEKT4] | 4.17 ± 0.15 | 4.1 ± 0.15 | – | –
TGDGWEFKLADPDEVARRWGKRKN [ETS2] | 4.34 ± 0.33 | 4.34 ± 0.26 | – | –
ELERLIDKAMKKDGLVGMAIVGGM [FIS1] | 2 ± 0.29 | 2.46 ± 0.37 | – | –
MDDQGCPRCKTTKYRNPSLKLMVN [MNAT1] | 2.8 ± 0.16 | 3.21 ± 0.22 | – | –
SGSAGQYGSDQQHHLGSGSGAGGT [MYOZ1] | 4.98 ± 0.21 | 5.12 ± 0.29 | – | –
ISAHKPLLISSCDWMAAMFGGPFV [RHOBTB2] | 2.51 ± 0.57 | 2.44 ± 0.2 | – | –
VIMWDIGGRKGTAIELQGHNDRVQ [WDFY2] | 2.57 ± 0.64 | 2.45 ± 0.17 | – | –
LLLERAAAGSPRSPGPLPGARGLH [ISL2] | 2.8 ± 0.15 | 2.97 ± 0.049 | – | –
GRRYEAVKWMVVFAIGVCTGLVGL [CLCN6] | 3.33 ± 0.1 | 3.2 ± 0.092 | – | –
LPGSYLSSECHTSGFVGSGGWFCE [KRT36] | 2.15 ± 0.39 | 2.24 ± 0.26 | – | –
AEALGKLLQQNKSIQSLTLEWNSL [LRRC45] | 2.13 ± 0.16 | 2.25 ± 0.32 | – | –
QLAAGRHGDDLKNTKNEISELTRL [KRT71] | 4.58 ± 0.32 | 4.52 ± 0.15 | – | –
